This note sets out measurements from paper PMC11315924.

The assay deals with T1, full-length human MICAL1 (human) (UniProt Q8TDZ2).
T1 sequence: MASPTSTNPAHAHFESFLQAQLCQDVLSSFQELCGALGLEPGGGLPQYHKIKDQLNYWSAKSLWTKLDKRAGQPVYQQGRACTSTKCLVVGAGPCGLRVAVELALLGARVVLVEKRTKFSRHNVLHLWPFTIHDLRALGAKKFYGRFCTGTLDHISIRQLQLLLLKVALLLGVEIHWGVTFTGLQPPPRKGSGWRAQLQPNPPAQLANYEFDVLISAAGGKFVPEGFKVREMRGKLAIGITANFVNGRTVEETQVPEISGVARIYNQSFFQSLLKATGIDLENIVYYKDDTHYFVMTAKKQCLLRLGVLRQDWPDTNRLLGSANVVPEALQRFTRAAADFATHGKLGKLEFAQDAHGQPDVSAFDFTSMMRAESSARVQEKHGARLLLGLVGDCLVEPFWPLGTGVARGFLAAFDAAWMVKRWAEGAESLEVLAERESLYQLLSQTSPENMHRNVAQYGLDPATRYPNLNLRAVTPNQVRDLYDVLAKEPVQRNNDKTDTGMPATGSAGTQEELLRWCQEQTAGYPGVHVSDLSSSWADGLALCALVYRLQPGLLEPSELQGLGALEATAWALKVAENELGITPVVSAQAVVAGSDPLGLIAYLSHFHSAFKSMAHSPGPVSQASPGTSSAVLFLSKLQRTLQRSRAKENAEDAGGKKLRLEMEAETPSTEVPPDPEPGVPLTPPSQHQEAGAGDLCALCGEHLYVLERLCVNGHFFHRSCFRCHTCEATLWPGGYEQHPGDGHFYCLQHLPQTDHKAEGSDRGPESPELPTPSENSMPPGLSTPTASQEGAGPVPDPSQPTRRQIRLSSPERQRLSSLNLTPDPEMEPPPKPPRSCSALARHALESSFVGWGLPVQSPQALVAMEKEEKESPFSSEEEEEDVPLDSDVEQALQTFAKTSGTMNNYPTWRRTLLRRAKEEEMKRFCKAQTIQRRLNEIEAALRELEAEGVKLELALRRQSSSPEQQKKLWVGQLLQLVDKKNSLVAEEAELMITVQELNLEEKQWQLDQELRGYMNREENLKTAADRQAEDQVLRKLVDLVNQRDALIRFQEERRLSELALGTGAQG

“human Rab8a 1-181 with the constitutively active mutation Q67L (from UniProt P61006 1-181) (domain or fragment)”: the fold enhancement of NADPH turnover of MICAL1 (0.5 μM) on adding Rab8a (40 μM) came out at 4 fold.
